Test results: US20120201781A1 (AbbVie / Abbott, published 2012)
Read-outs that look alike come from different tables or passages of the source. Values belong to the binder of their own block, whether it stands above or below them.

Columns and labels:
[1] = target: T1, recombinant human IL-1α (human, UniProt P01583 113-271); assay: SPR (Biacore), mAb captured via goat anti-mouse IgG
T1 construct: Purified recombinant protein bought from R&D Systems; also called hIL-1α; rhIL-1α
T1 sequence: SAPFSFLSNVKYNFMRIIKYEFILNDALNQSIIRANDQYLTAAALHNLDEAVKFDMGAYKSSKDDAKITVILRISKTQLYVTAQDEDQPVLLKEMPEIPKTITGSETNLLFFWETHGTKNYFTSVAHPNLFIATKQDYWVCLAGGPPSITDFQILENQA

[2] = target: T1, recombinant human IL-1α; assay: SPR (Biacore)
[3] = target: T1, recombinant human IL-1α; assay: cell-based or functional assay
[4] = target: T1, recombinant human IL-1α; assay: cell-based or functional assay; remark: listed apart in the source
[5] = target: T2, recombinant human IL-1β (human, UniProt P01584 117-269); assay: SPR (Biacore)
T2 construct: Recombinant protein; also called hIL-1β; rhIL-1β

[6] = target: T2, recombinant human IL-1β; assay: cell-based or functional assay
[7] = target: T2, recombinant human IL-1β; assay: SPR (Biacore), mAb captured via goat anti-mouse IgG
[8] = target: T2, recombinant human IL-1β; assay: cell-based or functional assay; remark: listed apart in the source
[9] = target: T1, recombinant human IL-1α; assay: cell-based or functional assay; remark: listed apart in the source
[10] = target: T1, recombinant human IL-1α; assay: SPR (Biacore 3000), binder captured via goat anti-human IgG Fc
Protocol: (§1) Approximately, 5000 RU of goat anti-human IgG Fcγ fragment specific polyclonal antibody (Pierce Biotechnology Inc, Rockford, Ill.) diluted in 10 mM sodium acetate (pH 4.5) was directly immobilized across a CM5 research grade biosensor chip using a standard amine coupling kit according to manufacturer's instructions and procedures at […]. Unreacted moieties on the biosensor surface were blocked with ethanolamine. Modified carboxymethyl dextran surface in flowcell 2 and 4 was used as a reaction surface. Unmodified carboxymethyl dextran without goat anti-human IgG in flow cell 1 and 3 was used as the reference surface. For kinetic analysis, rate equations derived from the 1:1 Langmuir binding model were fitted simultaneously to association and dissociation phases of all ten injections (using global fit analysis) using the Bioevaluation 4.0.1 software. Purified DVD-Ig samples were diluted in HEPES-buffered saline for capture across goat anti-human IgG Fc specific reaction surfaces and injected over reaction matrices at a flow rate of […]. The association and dissociation rate constants, kon (M-1s-1) and koff (s-1) were determined under a continuous flow rate of 25 ml/minute. […] The equilibrium dissociation constant (M) of the reaction between DVD-Ig molecule and rhIL1α/β was then calculated from the kinetic rate constants by the following formula: KD=koff/kon. Aliquots of rhIL1α/β samples were also simultaneously injected over a blank reference and reaction CM surface to record and subtract any nonspecific binding background to eliminate the majority of the refractive index change and injection noise. Surfaces were regenerated with two subsequent […] injections of 10 mM Glycine (pH 1.5) at a flow rate of […]. The anti-Fc antibody immobilized surfaces were completely regenerated and retained their full capture capacity over twelve cycles. The apparent stoichiometry of the captured DVD-Ig-rhIL1α/β complex was calculated under saturating binding conditions (steady-state equilibrium) using the following formula: […]

[11] = target: T1, recombinant human IL-1α; assay: SPR (Biacore 3000), saturating binding
Protocol: (§2) The association and dissociation rate constants, kon (M-1s-1) and koff (s-1) were determined under a continuous flow rate of 25 ml/minute. […] The equilibrium dissociation constant (M) of the reaction between DVD-Ig molecule and rhIL1α/β was then calculated from the kinetic rate constants by the following formula: KD=koff/kon. Aliquots of rhIL1α/β samples were also simultaneously injected over a blank reference and reaction CM surface to record and subtract any nonspecific binding background to eliminate the majority of the refractive index change and injection noise. Surfaces were regenerated with two subsequent […] injections of 10 mM Glycine (pH 1.5) at a flow rate of […]. The anti-Fc antibody immobilized surfaces were completely regenerated and retained their full capture capacity over twelve cycles. The apparent stoichiometry of the captured DVD-Ig-rhIL1α/β complex was calculated under saturating binding conditions (steady-state equilibrium) using the following formula: […]
(§3) The affinity of the two DVD-Ig binding proteins to hIL-1 as compared to the affinity of chimeric antibodies to hIL-1 was similar as indicated by the evaluation of the stoichiometry to IL-1. Both chimeric antibodies, being bivalent monospecific, bound to IL-1α and IL-1β on Biacore with a stoichiometry of 1.6 and 1.7, respectively. This is common for an IgG due to inter-molecular interference when antibodies are immobilized densely on the Biacore sense chip resulting in stoichiometry being in the range from 1.5 to 2.0.

[12] = target: T3, murine IL-1α (mouse, UniProt P01582 115-270); assay: cell-based or functional assay
T3 sequence (looked up): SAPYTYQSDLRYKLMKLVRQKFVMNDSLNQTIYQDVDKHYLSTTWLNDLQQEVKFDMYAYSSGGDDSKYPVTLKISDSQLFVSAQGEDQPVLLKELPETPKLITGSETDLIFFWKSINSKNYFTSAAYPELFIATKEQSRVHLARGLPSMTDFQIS

[13] = target: T3, murine IL-1α; assay: affinity, method not named for this table (Biacore elsewhere)
[14] = target: T2, recombinant human IL-1β; assay: cell-based or functional assay; remark: listed apart in the source
[15] = target: T2, recombinant human IL-1β; assay: SPR (Biacore 3000), binder captured via goat anti-human IgG Fc
Protocol: as §1

[16] = target: T2, recombinant human IL-1β; assay: SPR (Biacore 3000), saturating binding
Protocol: as §2, §3

- Kd [1]: 0.354 nM
- Kd [2]: 0.354 nM
- IC50 (M), MRC-5 bioassay (inhibition of IL-8 production) [3]: 2.4e-10 M
- IC50 (M), MRC-5 bioassay [4]: 2.4e-10 M
B1: murine monoclonal antibody 6H3.1A4.3E11 (antibody, V domains shown)
VH: QVQLQQPGAELVRPGASVKLSCKASGYTFTTYWMNWVKQRPEQGLEWIGRIDPYDSETLYSQKFKDTAILTVDKSSSTAYMQLSSLTSEDSAVYYCARYGFDYWGQGTTLTVSS
VL: QIVLTQSPALMSASPGEKVTMTCSASSSVNYMYWYQQKPRSSPKPWIYLTSNLASGVPARFSGSGSGTSYSLTISSMEAEDAATYYCQQWNSNPYTFGGGTKLEMKR
notes: Murine hybridoma mAb, anti-hIL-1α

- Kd [5]: 0.671 nM
- Kd [2]: 13.2 nM
- Potency (IC50) M, MRC-5 bioassay [6]: 0.25 nM
- Potency (IC50) M, MRC-5 bioassay [4]: 3.3 nM
B2: hIL-1α/β DVD5b-Ig (bispecific antibody, human IgG1, kappa)
heavy: not shown
light: QIVLTQSPAIMSASPGEKVTITCSASSSVSYMHWFQQKPGASPKLWIYSTSNLASGVPARFSGSGSGTSYSLTVSRMEAEDAATYYCQQRSTYPYTFGGGTKLEIKRTVAAPQIVLTQSPALMSASPGEKVTMTCSASSSVNYMYWYQQKPRSSPKPWIYLTSNLASGVPARFSGSGSGTSYSLTISSMEAEDAATYYCQQWNSNPYTFGGGTKLEMKRTVAAPSVFIFPPSDEQLKSGTASVVCLLNNFYPREAKVQWKVDNALQSGNSQESVTEQDSKDSTYSLSSTLTLSKADYEKHKVYACEVTHQGLSSPVTKSFNRGEC
notes: 6B12.4F6 (outer) - short linker - 6H3.1A4.3E11 (inner), b-a-C orientation

- Kd [7]: 0.213 nM
- Kd [5]: 0.261 nM
- IC50 (M), MRC-5 bioassay (inhibition of IL-8 production) [8]: 5.3e-10 M
- IC50 (M), MRC-5 bioassay [6]: 6e-10 M
B3: murine monoclonal antibody 1B12.4H4 (antibody, V domains shown)
VH: QVHLKESGPGLVAPSQSLSITCTVSGFSLTDYGVSWIRQPPGKGLEWLGLIWGGGDTYYNSPLKSRLSIRKDNSKSQVFLKMNSLQTDDTAVYYCAKQRTLWGYDLYGMDYWGQGTSVTVSS
VL: ETTVTQSPASLSMAIGEKVTIRCITSTDIDVDMNWYQQKPGEPPKLLISQGNTLRPGVPSRFSSSGSGTDFVFIIENMLSEDVADYYCLQSDNLPLTFGAGTKLELKR
notes: Murine hybridoma mAb, anti-hIL-1β

- Potency (IC50) M, MRC-5 bioassay [9]: 0.7 nM
- Kd [10]: 1.34 nM
- koff [10]: 0.000552 s⁻¹
- kon [10]: 412000 M⁻¹ s⁻¹
- Stoichiometry [11]: 1.6
B4: chimeric 3D12.E3 antibody (antibody, V domains shown)
VH: QIQLVQSGPELKKPGETVKISCKASGYTFRNYGMNWVKQAPGKDLKRMAWINTYTGESTYADDFKGRFAFSLETSASTAYLQINNLKNEDTATYFCARGIYYYGSSYAMDYWGQGTSVTVSS
VL: NIQMTQTTSSLSASLGDRVTISCRASQDISNCLNWYQQKPDGTVKLLIYYTSRLHSGVPSRFSGSGSGTDYSLTISNLEQEDIATYFCQQGKTLPYAFGGGTKLEINR
notes: Murine variable domains on human Cγ1 and human Cκ constant regions (3D12.E3-VH-hCγ1, 3D12.E3-VL-hCκ); also called 3D12.E3-Ch; 3D12.E3 chimeric Ab

- IC50 (M), in vitro potency [12]: 2e-10 M
- Kd [13]: 0.173 nM
B5: mouse anti-mouse IL-1α monoclonal antibody 9H10 (antibody, V domains shown)
VH: QVILKESGPGILQPSQTLSLTCSFSGFSLSTYGTAVNWIRQPSGKGLEWLAQIGSDDRKLYNPFLKSRITLSEDTSNSQVFLKITSVDTEDSATYYCANGVMEYWGLGTSVTVSS
VL: SIVMTQTPKFLLVSAGDRVTITCKASQSVNHDVAWYQQMPGQSPKLLIYFASNRYTGVPDRFTGSGYGTDFTFTISTVQAEDLAVYFCQQDYSSPYTFGGGTKLEIKR
notes: Mouse mAb from IL-1αβ double KO mice; also called anti-IL-1α (9H10)

- Kd [5]: 2.09 nM
- Kd [2]: 1.06 nM
- Potency (IC50) M, MRC-5 bioassay [6]: 70 nM
- Potency (IC50) M, MRC-5 bioassay [4]: 2.3 nM
B6: hIL-1α/β DVD6a-Ig (bispecific antibody, human IgG1, kappa)
heavy: not shown
light: QIVLTQSPALMSASPGEKVTMTCSASSSVNYMYWYQQKPRSSPKPWIYLTSNLASGVPARFSGSGSGTSYSLTISSMEAEDAATYYCQQWNSNPYTFGGGTKLEMKRTVAAPSVFIFPPQIVLTQSPAIMSASPGEKVTITCSASSSVSYMHWFQQKPGASPKLWIYSTSNLASGVPARFSGSGSGTSYSLTVSRMEAEDAATYYCQQRSTYPYTFGGGTKLEIKRRTVAAPSVFIFPPSDEQLKSGTASVVCLLNNFYPREAKVQWKVDNALQSGNSQESVTEQDSKDSTYSLSSTLTLSKADYEKHKVYACEVTHQGLSSPVTKSFNRGEC
notes: 6H3.1A4.3E11 (outer) - long linker - 6B12.4F6 (inner), a-b-C orientation

- Kd [7]: 0.554 nM
- Kd [5]: 0.554 nM
- IC50 (M), MRC-5 bioassay (inhibition of IL-8 production) [8]: 3.2e-10 M
- IC50 (M), MRC-5 bioassay [6]: 4e-10 M
B7: murine monoclonal antibody 6B12.4F6 (antibody, V domains shown)
VH: EVQLQQSGPELVKTGTSVKISCKASGYSFTGYYMHWVRQSHGKSLEWIGYISCYNGFTSYNPKFKGKATFTVDTSSSTAYIQFSRLTSEDSAVYYCARSDYYGTNDYWGQGTTLTVSS
VL: QIVLTQSPAIMSASPGEKVTITCSASSSVSYMHWFQQKPGASPKLWIYSTSNLASGVPARFSGSGSGTSYSLTVSRMEAEDAATYYCQQRSTYPYTFGGGTKLEIKR
notes: as for B3

- Potency (IC50) M, MRC-5 bioassay [14]: 0.53 nM
- Kd [15]: 0.462 nM
- koff [15]: 0.000654 s⁻¹
- kon [15]: 1.41e+06 M⁻¹ s⁻¹
- Stoichiometry [16]: 1.7
B8: chimeric 13F5.G5 antibody (antibody, V domains shown)
VH: QVQLQQSGAELVRPGSSVKISCKASGYAFSSYWMNWVKQRPGQGLEWIGQIYPGDGDTNYNGKFKGKATLTADKSSSTSYMQLSGLTSEDSAMYFCVRFPTGNDYYAMDYWGQGTSVTVSS
VL: NIVLTQSPASLAVSLGQRATISCRASESVDSYGNSYMHWYQQKPGQPPKLLIYLASNLESGVPARFSGSGSRTDFTLTIDPVEADDAATYYCQQNNEDPFTFGSGTKLEIKR
notes: Murine variable domains on human Cγ1 and human Cκ constant regions (13F5.G5-VH-Cγ1, 13F5.G5-VL-Cκ); also called 13F5.G5-Ch; 13F5.G5 chimeric Ab

- Kd [5]: 0.697 nM
- Kd [2]: 0.82 nM
- Potency (IC50) M, MRC-5 bioassay [6]: 0.75 nM
- Potency (IC50) M, MRC-5 bioassay [4]: 1 nM
B9: hIL-1α/β DVD6b-Ig (bispecific antibody, human IgG1, kappa)
heavy: not shown
light: QIVLTQSPAIMSASPGEKVTITCSASSSVSYMHWFQQKPGASPKLWIYSTSNLASGVPARFSGSGSGTSYSLTVSRMEAEDAATYYCQQRSTYPYTFGGGTKLEIKRTVAAPSVFIFPPQIVLTQSPALMSASPGEKVTMTCSASSSVNYMYWYQQKPRSSPKPWIYLTSNLASGVPARFSGSGSGTSYSLTISSMEAEDAATYYCQQWNSNPYTFGGGTKLEMKRRTVAAPSVFIFPPSDEQLKSGTASVVCLLNNFYPREAKVQWKVDNALQSGNSQESVTEQDSKDSTYSLSSTLTLSKADYEKHKVYACEVTHQGLSSPVTKSFNRGEC
notes: 6B12.4F6 (outer) - long linker - 6H3.1A4.3E11 (inner), b-a-C orientation

- Kd [1]: 0.578 nM
- Kd [2]: 0.595 nM
- IC50 (M), MRC-5 bioassay (inhibition of IL-8 production) [3]: 8.9e-11 M
- IC50 (M), MRC-5 bioassay [4]: 3.3e-10 M
B10: murine monoclonal antibody 18F4.2C8 (antibody, V domains shown)
VH: EVQLQQSGAELVKPGASVKLSCTASGLNIKDTYMHWLKQRPEQGLEWIGRIDPANGNAKYDPRFLGKATITADTSSNTAYLQLSSLTSEDTAVYYCARGDGNFHFDYWGQGTTLTVSS
VL: DIVMTQSQRFMSTSVGDRVSVTCKASQNVGTNIAWYQQKPGQSPRALIYSASYRYSGVPDRFTGSGSGTDFTLTISNVQSVDLAEYFCQQYTRYPLTFGGGTKLEIKR
notes: as for B1
